Data reported in the supplement of paper PMC9112550, “Optimization of the antimicrobial peptide Bac7 by deep mutational scanning” (BMC Biology, 2022).

Test system: Escherichia coli TOP10
Test: shrunken log2 fold change of peptide-encoding DNA abundance (4.5 h post-induction vs induction); higher = less antimicrobial activity (less host growth inhibition)
Conditions: time post-induction: 4.5 h; library: site-saturation at positions 5, 18, 19, 20
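Also: peptides expressed intracellularly from a pBAD plasmid library in pooled LB shake-flask culture, induced with 0.3% L-arabinose, DNA abundance read by NGS, three biological replicates, DESeq2 with apeglm shrinkage.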

Sequence	shrunken log2 fold change
RRIRRRPPRLPRPRPRPYNTPRP	-0.436
RRIRVRPPRLPRPRPRPENRPRP	-0.221
RRIRFRPPRLPRPRPRPMKHPRP	-0.149
RRIRMRPPRLPRPRPRPYVCPRP	-0.00867
RRIRRRPPRLPRPRPRPAIQPRP	0.561
RRIRWRPPRLPRPRPRPTSTPRP	0.0842
RRIRKRPPRLPRPRPRPRKSPRP	0.727
RRIRKRPPRLPRPRPRPHFPPRP	0.179
RRIRIRPPRLPRPRPRPWGQPRP	-0.00987
RRIRFRPPRLPRPRPRPTAKPRP	0.444
RRIRWRPPRLPRPRPRPAQGPRP	0.27
RRIRARPPRLPRPRPRPWPHPRP	-0.0357
RRIRTRPPRLPRPRPRPKTSPRP	-0.0907
RRIRSRPPRLPRPRPRPHSEPRP	-0.0351
RRIRQRPPRLPRPRPRPPLFPRP	0.838
RRIRIRPPRLPRPRPRPAQHPRP	-0.0384
RRIRFRPPRLPRPRPRPLLTPRP	-0.166
RRIRMRPPRLPRPRPRPRASPRP	1.08
RRIRLRPPRLPRPRPRPGMLPRP	0.0285
RRIRMRPPRLPRPRPRPEPCPRP	1.13
RRIRSRPPRLPRPRPRPDVNPRP	0.0672
RRIRYRPPRLPRPRPRPPSIPRP	-0.285
RRIRCRPPRLPRPRPRPPCIPRP	0.0428
RRIRWRPPRLPRPRPRPIRNPRP	-0.334
RRIRMRPPRLPRPRPRPLTCPRP	-0.0821

Sequence	shrunken log2 fold change
RRIRHRPPRLPRPRPRPWKNPRP	-0.187
RRIRYRPPRLPRPRPRPGYKPRP	-0.978
RRIRYRPPRLPRPRPRPTIKPRP	-0.151
RRIRYRPPRLPRPRPRPCKPPRP	-0.00151
RRIRMRPPRLPRPRPRPSRMPRP	0.454
RRIRTRPPRLPRPRPRPLNCPRP	-0.405
RRIRFRPPRLPRPRPRPIRHPRP	-0.355
RRIRKRPPRLPRPRPRPCGEPRP	0.166
RRIRSRPPRLPRPRPRPINFPRP	-0.168
RRIRPRPPRLPRPRPRPGDQPRP	3.33
RRIRHRPPRLPRPRPRPFLRPRP	-0.173
RRIRWRPPRLPRPRPRPCAMPRP	-0.272
RRIRTRPPRLPRPRPRPPWGPRP	0.0724
RRIRFRPPRLPRPRPRPANIPRP	-0.0774
RRIRGRPPRLPRPRPRPDVRPRP	0.0237
RRIRGRPPRLPRPRPRPCEHPRP	0.149
RRIRLRPPRLPRPRPRPANCPRP	-0.291
RRIRMRPPRLPRPRPRPIRMPRP	0.213
RRIRRRPPRLPRPRPRPEYFPRP	0.2
RRIRTRPPRLPRPRPRPFRRPRP	-0.0209
RRIRIRPPRLPRPRPRPNCVPRP	-0.376
RRIRKRPPRLPRPRPRPNKVPRP	-0.00759
RRIRIRPPRLPRPRPRPYSMPRP	-0.436
RRIRTRPPRLPRPRPRPPINPRP	-0.338
RRIRPRPPRLPRPRPRPNKRPRP	-0.101

Sequence	shrunken log2 fold change
RRIRRRPPRLPRPRPRPALPPRP	0.48
RRIRLRPPRLPRPRPRPGCFPRP	0.269
RRIRERPPRLPRPRPRPRTEPRP	-0.0166
RRIRYRPPRLPRPRPRPFMCPRP	-0.233
RRIRDRPPRLPRPRPRPGRMPRP	0.174
RRIRVRPPRLPRPRPRPVMKPRP	-0.127
RRIRGRPPRLPRPRPRPGDPPRP	0.779
RRIRGRPPRLPRPRPRPDNCPRP	-0.0626
RRIRARPPRLPRPRPRPNSEPRP	0.0883
RRIRGRPPRLPRPRPRPGMPPRP	0.406
RRIRLRPPRLPRPRPRPLSWPRP	0.0186
RRIRPRPPRLPRPRPRPDQFPRP	-0.0233
RRIRGRPPRLPRPRPRPYDKPRP	-0.147
RRIRPRPPRLPRPRPRPRRVPRP	0.098
RRIRGRPPRLPRPRPRPHRAPRP	0.108
RRIRSRPPRLPRPRPRPYQKPRP	-0.122
RRIRCRPPRLPRPRPRPWRCPRP	0.486
RRIRSRPPRLPRPRPRPGCAPRP	0.46
RRIRTRPPRLPRPRPRPDTMPRP	0.0881
RRIRTRPPRLPRPRPRPMRQPRP	-0.01
RRIRLRPPRLPRPRPRPKNGPRP	-0.203
RRIRFRPPRLPRPRPRPIGKPRP	-0.0112
RRIRGRPPRLPRPRPRPLERPRP	0.577
RRIRGRPPRLPRPRPRPLFSPRP	0.113
RRIRMRPPRLPRPRPRPLIVPRP	1.71

Sequence	shrunken log2 fold change
RRIRHRPPRLPRPRPRPFPCPRP	-0.0311
RRIRGRPPRLPRPRPRPAWCPRP	0.822
RRIRTRPPRLPRPRPRPSRAPRP	0.271
RRIRSRPPRLPRPRPRPEPQPRP	0.397
RRIRPRPPRLPRPRPRPMTSPRP	0.0205
RRIRVRPPRLPRPRPRPPSKPRP	1.13
RRIRKRPPRLPRPRPRPGLQPRP	-0.00225
RRIRIRPPRLPRPRPRPWFRPRP	-0.129
RRIRLRPPRLPRPRPRPCWVPRP	-0.00196
RRIRIRPPRLPRPRPRPWKRPRP	-0.0143
RRIRFRPPRLPRPRPRPLEIPRP	-0.0193
RRIRPRPPRLPRPRPRPMAHPRP	-0.165
RRIRMRPPRLPRPRPRPNIFPRP	-0.0848
RRIRPRPPRLPRPRPRPCTIPRP	-0.536
RRIRNRPPRLPRPRPRPHAGPRP	0.00938
RRIRWRPPRLPRPRPRPGLDPRP	0.601
RRIRVRPPRLPRPRPRPGGNPRP	-0.0392
RRIRWRPPRLPRPRPRPNIIPRP	-0.486
RRIRCRPPRLPRPRPRPSLGPRP	-0.0171
RRIRMRPPRLPRPRPRPWKDPRP	-0.0578
RRIRYRPPRLPRPRPRPWICPRP	-0.593
RRIRMRPPRLPRPRPRPATAPRP	1.17
RRIRPRPPRLPRPRPRPVLCPRP	0.282
RRIRNRPPRLPRPRPRPKHCPRP	-0.111
RRIRGRPPRLPRPRPRPYYDPRP	-0.294

Sequence	shrunken log2 fold change
RRIRGRPPRLPRPRPRPSSIPRP	0.0764
RRIRVRPPRLPRPRPRPGDCPRP	0.404
RRIRIRPPRLPRPRPRPPCRPRP	0.0264
RRIRVRPPRLPRPRPRPTWAPRP	0.194
RRIRNRPPRLPRPRPRPKHDPRP	-0.287
RRIRWRPPRLPRPRPRPNILPRP	-0.402
RRIRGRPPRLPRPRPRPYIWPRP	-0.107
RRIRIRPPRLPRPRPRPTHDPRP	-0.0575
RRIRTRPPRLPRPRPRPCWAPRP	-0.0904
RRIRPRPPRLPRPRPRPTHDPRP	0.258
RRIRDRPPRLPRPRPRPHFFPRP	0.152
RRIRRRPPRLPRPRPRPHMPPRP	-0.037
RRIRLRPPRLPRPRPRPTGIPRP	-0.182
RRIRKRPPRLPRPRPRPRYMPRP	-0.334
RRIRHRPPRLPRPRPRPLWNPRP	-1.07
RRIRFRPPRLPRPRPRPSMEPRP	-0.202
RRIRERPPRLPRPRPRPLLKPRP	-0.439
RRIRGRPPRLPRPRPRPYESPRP	0.133
RRIRDRPPRLPRPRPRPGQMPRP	-0.0138
RRIRDRPPRLPRPRPRPWVAPRP	-0.0114
RRIRERPPRLPRPRPRPKHWPRP	0.0518
RRIRLRPPRLPRPRPRPFWMPRP	-0.0876
RRIRYRPPRLPRPRPRPTTMPRP	-0.722
RRIRMRPPRLPRPRPRPSSNPRP	-0.142
RRIRIRPPRLPRPRPRPATIPRP	-0.201

Sequence	shrunken log2 fold change
RRIRMRPPRLPRPRPRPHYAPRP	-0.128
RRIRFRPPRLPRPRPRPFPHPRP	-0.142
RRIRQRPPRLPRPRPRPNTGPRP	-0.766
RRIRERPPRLPRPRPRPIDKPRP	-0.321
RRIRERPPRLPRPRPRPAQVPRP	-0.149
RRIRERPPRLPRPRPRPQTNPRP	-0.554
RRIRGRPPRLPRPRPRPYPFPRP	-0.164
RRIRYRPPRLPRPRPRPQPWPRP	-0.149
RRIRFRPPRLPRPRPRPISRPRP	0.0107
RRIRTRPPRLPRPRPRPTCIPRP	-0.503
RRIRPRPPRLPRPRPRPILEPRP	-0.132
RRIRHRPPRLPRPRPRPRLMPRP	0.121
RRIRWRPPRLPRPRPRPNHMPRP	-0.227
RRIRHRPPRLPRPRPRPEVNPRP	0.062
RRIRDRPPRLPRPRPRPKIRPRP	-0.0266
RRIRDRPPRLPRPRPRPWMCPRP	-0.0722
RRIRCRPPRLPRPRPRPHNCPRP	-0.491
RRIRYRPPRLPRPRPRPVIKPRP	-0.585
RRIRFRPPRLPRPRPRPGHSPRP	-0.0168
RRIRMRPPRLPRPRPRPFTTPRP	-0.0216
RRIRWRPPRLPRPRPRPCWKPRP	-0.00256
RRIRNRPPRLPRPRPRPLCYPRP	-0.781
RRIRSRPPRLPRPRPRPNNVPRP	-0.592
RRIRNRPPRLPRPRPRPISAPRP	-0.0545
RRIRMRPPRLPRPRPRPVMSPRP	0.134
